Reference: patent publication US20050003400A1 (Amgen, published 2005)

B1: murine OPG binding protein (full length, 316 aa, encoded by clone 32D-F3), on the cell surface (ligand)
chain: MRRASRDYGKYLRSSEEMGSGPGVPHEGPLHPAPSAPAPAPPPAASRSMFLALLGLGLGQVVCSIALFLYFRAQMDPNRISEDSTHCFYRILRLHENAGLQDSTLESEDTLPDSCRRMKQAFQGAVQKELQHIVGPQRFSGAPAMMEGSWLDVAQRGKPEAQPFAHLTINAASIPSGSHKVTLSSWYHDRGWAKISNMTLSNGKLRVNQDGFYYLYANICFRHHETSGSVPTDYLQLMVYVVKTSIKIPSSHNLMKGGSTKNWSGNSEFHFYSINVGGFFKLRAGEEISIQVSNPSLLDPDQDATYFGAFKVQDID
notes: Type II transmembrane protein; also called OPGbp; OPG-bp

Legend:
[1] = biological target: B1; test: immunostaining of COS-7 cells transfected with 32D-F3
Procedure: Arrayed pools of 32D cDNA expression library were individually lipofected into COS-7 cultures, then assayed for the acquisition of a cell surface OPG binding protein. To do this, COS-7 cells were plated at a density of 1×10⁶ per ml in six-well tissue culture plates (Costar), then cultured overnight in DMEM (Gibco) containing 10% FCS. Approximately 2 μg of plasmid DNA from each pool was diluted into 0.5 ml of serum-free DMEM, then sterilized by centrifugation through a 0.2 μm Spin-X column (Costar). Simultaneously, 10 μl of Lipofectamine (Life Technologies Cat # 18324-012) was added to a separate tube containing 0.5 ml of serum-free DMEM. The DNA and Lipofectamine solutions were mixed, and allowed to incubate at RT for 30 min. The COS-7 cell cultures were then washed with serum-free DMEM, and the DNA-lipofectamine complexes were exposed to the cultures for 2-5 hr at 37° C. After this period, the media was removed, and replaced with DMEM containing 10% FCS. The cells were then cultured for 48 hr at 37° C.
Using this approach, a total of approximately 300,000 independent 32D cDNA clones were screened, represented by 300 transfected pools of 1000 clones each. A single well was identified that contained cells which acquired the ability to be specifically decorated by the OPG-Fc fusion protein. […]

[2] = biological target: B1; test: staining of 32D cells with 5 ug/ml OPG-Fc and PE anti-human IgG, FACS
purified human IgG1 Fc = biological target: T1, purified human IgG1 Fc (human, UniProt P01857-1 104-330 = IgG part, limits assumed); test: staining of 32D cells, FACS
T1 construct: domain: Fc
Procedure: Cell lines that grew as adherent cultures in vitro were treated using the following methods: Cells were plated into 24 well tissue culture plates (Falcon), then allowed to grow to approximately 80% confluency. The growth media was then removed, and the adherent cultures were washed with phosphate buffered saline (PBS) (Gibco) containing 1% fetal calf serum (FCS). […] The OPG-Fc fusion protein solution was discarded, and the cells were washed in PBS-FCS solution as described above. The cultures were then exposed to phycoeyrthrin-conguated goat F(ab′) anti-human IgG secondary antibody (Southern Biotechnology Associates Cat. # 2043-09) diluted into PBS-FCS. After a 30-45 min incubation at 0° C., the solution was discarded, and the cultures were washed as described above. The cells were then analyzed by immunofluorescent microscopy to detect cell lines which express a cell surface OPG binding protein.
Suspension cell cultures were analyzed in a similar manner with the following modifications: The diluent and wash buffer consisted of calcium- and magnesium-free phosphate buffered saline containing 1% FCS. […] The cells were then analyzed by fluorescence activated cell sorting (FACS) using a Becton Dickinson FACscan.

binding result [2] | Binder | further results
 | chimeric ATAR extracellular domain-Fc fusion protein (Fc fusion, UniProt Q92956 39-202, looked up, extracellular domain; also called sATAR-Fc; ATAR-Fc fusion protein; not shown: human IgG1 Fc domain) LPSCKEDEYPVGSECCPKCSPGYRVKEACGELTGTVCEPCPPGTYIAHLNGLSKCLQCQMCDPAMGLRASRNCSRTENAVCGCSPGHFCIVQDGDHCAACRAYATSSPGQRVQKGGTESQDTLCQNCPPGTFSPNGTLEECQHQTKCSWLVTKAGAGTSSSHWV | binding result [1]: no binding
binds | recombinant mouse OPG [22-194]-Fc fusion protein (Fc fusion, UniProt O08712 22-194, looked up, also called OPG-Fc; not shown: Fc domain, detected with anti-human IgG) ETLPPKYLHYDPETGHQLLCDKCAPGTYLKQHCTVRRKTLCVPCPDHSYTDSWHTSDECVYCSPVCKELQSVKQECNRTHNRVCECEEGRYLEIEFCLKHRSCPPGSGVVQAGTPERNTVCKKCPDGFFSGETSSKAPCIKHTNCSTFGLLLIQKGNATHDNVCSGNREATQK | 
binds | recombinant human OPG [22-201]-Fc fusion protein (Fc fusion, UniProt O00300 22-201, looked up, construct described in U.S. Ser. No. 08/706,945; also called OPG-Fc; OPG Fc fusion protein; not shown: human IgG1 Fc domain) ETFPPKYLHYDEETSHQLLCDKCPPGTYLKQHCTAKWKTVCAPCPDHYYTDSWHTSDECLYCSPVCKELQYVKQECNRTHNRVCECKEGRYLEIEFCLKHRSCPPGFGVVQAGTPERNTVCKRCPDGFFSNETSSKAPCRKHTNCSVFGLLLTQKGNATHDNICSGNSESTQKCGIDVTL | 
 | B1 | binding result (purified human IgG1 Fc): no binding
